Assay results published in article PMC5700813, “A recombinant BBSome core complex and how it interacts with ciliary cargo” (eLife, 2017).
Several values for one entry are separate records, joined by “and”; a condition that tells them apart may be missing. Equal entries are not always repeated.

Experiment: Solubility of purified core BBSome
Type: physicochemical
Conditions: purified 6mer core BBSome
Protocol: The 6mer core BBSome could readily be purified in milligram quantities, and is soluble up to concentrations higher than 150 µM (>50 mg/ml). A single Strep affinity purification yielded almost pure complex with no obvious imbalance in the stoichiometry of components. The complex eluted as a single entity in all subsequent purification steps (Figure 1—figure supplement 3E), and was even resistant to high salt washes of up to 2.5 M NaCl, consistent with a previous study where the native BBSome was eluted with high salt concentrations from an Arl6 affinity column ([Jin et al., 2010]). The complex elutes in gel filtration with an apparent molecular weight of ~400 kDa, in acceptable agreement with the expected theoretical mass of 336.4 kDa (Figure 1—figure supplement 3C,D), but less consistent with it being a dimer.

## 6mer core BBSome: recombinant human subcomplex composed of BBS1, 4, 5, 8, 9 and 18
  soluble up to concentration: higher than 150 µM and > 50 mg/ml
